Measured values reported in patent publication US20110289605A1, “Animal Model for Osteoarthritis and Intervertebral Disc Disease” (THE UNIVERSITY OF ROCHESTER, priority 2008, published 2011).
Entries after “also recorded” stand apart in the source; their conditions may differ.

B1: Wnt3a: canonical Wnt ligand (protein, UniProt P56704 19-352, looked up)
Protein Wnt-3a: SYPIWWSLAVGPQYSSLGSQPILCASIPGLVPKQLRFCRNYVEIMPSVAEGIKIGIQECQHQFRGRRWNCTTVHDSLAIFGPVLDKATRESAFVHAIASAGVAFAVTRSCAEGTAAICGCSSRHQGSPGKGWKWGGCSEDIEFGGMVSREFADARENRPDARSAMNRHNNEAGRQAIASHMHLKCKCHGLSGSCEVKTCWWSQPDFRAIGDFLKDKYDSASEMVVEKHRESRGWVETLRPRYTYFKVPTERDLVYYEASPNFCEPNPETGSFGTRDRTCNVSSHGIDGCDLLCCGRGHNARAERRREKCRCVFHWCCYVSCQECTRVYDVHTCK

Tests used:
[1] = test system: Col2a1-CreER^T2;R26R mice; assay: TM-induced Cre-recombination in articular and growth plate chondrocytes, X-Gal staining; type: in vivo, mouse; details: for Cre-recombination efficiency in articular chondrocytes: n=3
Procedure: Col2a1-CreER^T2 transgenic mice were bred with Rosa26 reporter mice. Methods for mouse genotyping including primer sequences are the same as described previously (Chen et al., Genesis 45:44-50 (2007); Zhu et al., Osteoarthr. Cartilage 16:129-30 (2008)). Tamoxifen (TM, 1 mg/10 g body weight/day, i.p. injection, ×5 days) was administered to the 3- and 6-month-old mice, which were sacrificed 2 months after TM induction at the age of 5 and 8 months. Cre-recombination efficiency was evaluated by X-Gal staining. Nuclear Fast Red staining was performed as a counter stain. β-catenin^fx(Ex3)/fx(Ex3) mice were originally reported by Harada et al (Harada et al., Embo J. 18:5931-42 (1999)). The sequences of PCR primers for genotyping β-catenin^fx(Ex3)/fx(Ex3) mice are: upper primer, 5′-[…]-3′ (SEQ ID NO:10) and lower primer, 5′-[…]-3′ (SEQ ID NO:11). The 412-bp PCR product was detected in wild-type mice, and the 645-bp PCR product was detected in homozygous β-catenin^fx(Ex3)/fx(Ex3) mice. In heterozygous mice (β-catenin^fx(Ex3)/wt), both 412 and 645-bp PCR products were detected. The Col2a1-CreER^T2;β-catenin^fx(Ex3)/w transgenic mice and their Cre-negative littermates were used as controls and were administered TM as the experimental animals for phenotype analysis and cellular function studies.
In the present study, TM-induced Cre-recombination in fully developed growth-plate cartilage was investigated. Thus, creating the possibility of completely separating the role of a specific gene in articular chondrocytes from its potential effect on the growth plate cartilage, which may indirectly affect the function of articular cartilage. Col2a1-CreER^T2 transgenic mice were bred with Rosa26 reporter mice (Soriano, Nat. Genet. 21:70-71 (1999); Mao et al., Proc. Natl. Acad. Sci. USA 96:5037-42 (1999)). TM induction was performed in the 3- and 6-month-old Col2a1-CreER^T2;R26R mice. Mice were then sacrificed 2 months after TM induction at the age of 5 and 8 months and Cre-recombination efficiency was evaluated by X-Gal staining.

[2] = test system: IVD cells of Col2a1-CreER^T2;R26R transgenic mice; assay: TM-induced Cre-recombination in intervertebral disc (IVD) cells, X-Gal staining; type: in vivo, mouse; details: TM to 2-week-old mice, X-Gal staining at 1 month of age; listed as TM
Procedure: Since chondrocyte-specific β-catenin cAct mice (targeted by Col2a1-Cre transgenic mice) are embryonic lethal, to target intervertebral disc (IVD) cells (Col2a1-positive cell population) in postnatal and adult mice, the Col2a1-CreER^T2;R26R transgenic mice were used. Cre-recombination efficiency in IVD cells was determined in postnatal mice. TM (1 mg/10 g body weight, i.p., ×5 days) was administered into 2-week-old Col2a1-CreER^T2;R26R transgenic mice. Mice were sacrificed at 1 month of age and X-Gal staining was performed.

[3] = test system: RCS chondrogenic cell line; assay: Wnt3a treatment of RCS cells, Mmp-13 mRNA expression; type: cell-based; details: 24 and 48 hours
Procedure: Total RNA extracted from primary articular chondrocytes, articular cartilage tissue, or primary disc cells was prepared using Trizol (Invitrogen; Carlsbad, Calif.) according to the manufacturer's protocol. One microgram total RNA was used to synthesize cDNA by iScripts cDNA Synthesis Kit (Bio-Rad; Hercules, Calif.).
(§1) To determine the signaling mechanism through which β-catenin regulates Mmp-13 gene expression, in vitro studies using a RCS chondrogenic cell line were performed. […] A putative Runx2 binding site was identified within the 3.4 kb region of the Mmp-13 promoter.

[4] = test system: RCS chondrogenic cell line; assay: Wnt3a treatment, Runx2 protein expression (Western blot); type: cell-based; details: 0-48 hours
Procedure: as §1

[5] = test system: 3.4 kb mouse Mmp-13 promoter; assay: Mmp-13 promoter activity; type: cell-based
Procedure: as §1

Molecule	Cre-recombination efficiency in growth plate chondrocytes ([1]; TM administered in 3- and 6-month-old mice, 2 months after induction)	Cre-recombination efficiency in articular chondrocytes ([1]; TM administered in 3-month-old mice, X-Gal staining 2 months after induction (5-month-old))	Cre-recombination efficiency in articular chondrocytes ([1]; TM administered in 6-month-old mice, X-Gal staining 2 months later (8-month-old))	Cre-recombination efficiency in IVD cells [2]	Mmp-13 mRNA expression [3]	Runx2 protein expression [4]	Runx2 protein expression ([4]; listed as Wnt3a2)	Mmp-13 promoter activity, Runx2 binding site mutated ([5]; mutation of the Runx2 binding site in the promoter)	Mmp-13 promoter activity ([5]; wild-type 3.4 kb promoter)
CC/C(=C(\c1ccccc1)c1ccc(OCCN(C)C)cc1)c1ccccc1 [Tamoxifen]	less than 20%	84%	76%	high efficiency of Cre-recombination in annulus fibrosus cells and endplate cartilage cells but not in nucleus pulposus cells; also recorded: High Cre-recombination efficiency was observed in annulus fibrosus (AF) cells and endplate cartilage (EC) cells but not nucleus pulposus (NP) cells	–	–	–	–	–
B1	–	–	–	–	significantly increased; also recorded: stimulated Mmp-13 expression	stimulated Runx2 protein expression in a time-dependent manner	significantly up regulated	completely blocked the stimulatory effect; also recorded: completely abolished	stimulated Mmp-13 promoter activity
